Measured values reported in US20200123265A1 (AGENUS, published 2020).
Residue numbers refer to the chain shown, from its start. In names and notes the source's numbering stands.

T1: GITR antigen (R&D systems, disulfide-linked homodimer; 689-GR) (human, UniProt Q9Y5U5 26-161, R-PE labeled in the Luminex assay; amine-coupled to a CM5 chip in the SPR assay)
T1 construct: Bought reagent; also called R-PE labeled GITR antigen
T1 sequence (looked up): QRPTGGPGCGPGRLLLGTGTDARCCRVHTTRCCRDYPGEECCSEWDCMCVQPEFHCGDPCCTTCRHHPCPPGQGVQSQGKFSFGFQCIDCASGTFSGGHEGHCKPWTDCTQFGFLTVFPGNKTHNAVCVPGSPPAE

T2: human GITR D60A mutant, expressed on 1624-5 cells (human, UniProt Q9Y5U5 26-241)
T2 chain: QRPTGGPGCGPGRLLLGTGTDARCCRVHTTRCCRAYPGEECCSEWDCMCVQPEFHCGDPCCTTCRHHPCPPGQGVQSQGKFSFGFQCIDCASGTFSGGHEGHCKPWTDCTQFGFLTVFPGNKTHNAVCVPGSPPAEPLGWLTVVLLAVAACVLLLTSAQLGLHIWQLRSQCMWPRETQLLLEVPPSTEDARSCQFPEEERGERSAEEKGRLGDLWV

T3: human GITR G63A mutant, expressed on 1624-5 cells (human, UniProt Q9Y5U5 26-241)
T3 chain: T2 chain with A35D, G38A

T4: V1M cynomolgus GITR, expressed on 1624-5 cells (cynomolgus, UniProt Q9Y5U5 26-241 (human entry))
T4 chain: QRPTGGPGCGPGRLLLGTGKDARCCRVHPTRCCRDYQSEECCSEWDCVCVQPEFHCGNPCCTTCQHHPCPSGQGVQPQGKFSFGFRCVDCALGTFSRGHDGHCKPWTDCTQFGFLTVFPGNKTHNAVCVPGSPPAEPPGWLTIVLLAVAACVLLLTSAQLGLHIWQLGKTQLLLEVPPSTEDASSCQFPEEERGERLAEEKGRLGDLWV

T5: V1M/Q62P/S63G cynomolgus GITR, expressed on 1624-5 cells (cynomolgus, UniProt Q9Y5U5 26-241 (human entry))
T5 construct: V1M lies in the signal peptide and is left out with it; also called mutant cynomolgus GITR V1M/Q62P/S63G
T5 chain: T4 chain with Q37P, S38G

B1: m6C8 (antibody, V domains shown)
VH: QVTLKESGPGILKPSQTLSLTCSFSGFSLSTSGMGVGWIRQPSGKGLEWLAHIWWDDDKYYNPSLKSQLTISKDTSRNQVFLKITSVDTADAATYYCARTRRYFPFAYWGQGTLVTVSS
VL: DIVMTQSQKFMSTSVGDRVSVTCKASQNVGTNVAWYQQKPGQSPKALIYSASYRYSGVPDRFTGSGSGTDFTLTINNVHSEDLAEYFCQQYNTDPLTFGAGTKLEIK
notes: Generated based on the variable regions of antibody 6C8 of WO 06/105021; also called murine antibody 6C8
B2: chimeric parental 231-32-15 antibody (antibody, V domains shown)
VH: QVQLLQSGTELVRPGVSVKISCKGSGYTFTDYAMYWVKQSHAKSLEWIGVIRTYSGDVTYNQKFKDKATMTVDKSSSIAYMELARLSSEDSAIYYCAKSGTVRGFAYWGQGTLVTVSS
VL: DIVMTQSPSSLTVTAGEKVIMSCKSSQSLLNSGNQKNYLTWYQQKPGQPPKLLIYWASTRESGVPDRFTGSGSGTDFTLTISSVQAEDLAVYHCQNDYSYPYTFGGGTKLEIK
notes: elsewhere it was used as soluble antibody
B3: pab1876 (antibody, human IgG1, V domains shown)
VH: QVQLVQSGAEVKKPGASVKVSCKGSGYTFTDYAMYWVRQAPGQGLEWIGVIRTYSGDVTYNQKFKDRATMTVDKSISTAYMELSRLRSDDTAVYYCAKSGTVRGFAYWGQGTLVTVSS
VL: DIVMTQSPDSLAVSLGERATINCKSSQSLLNSGNQKNYLTWYQQKPGQPPKLLIYWASTRESGVPDRFSGSGSGTDFTLTISSLQAEDVAVYHCQNDYSYPYTFGQGTKLEIKR
notes: Human IgG1 with T109S (Kabat) in the light chain constant domain
B4: pab1875 (antibody, V domains shown)
VH: B3 VH
VL: DIVMTQSPPTLSLSPGERVTLSCKSSQSLLNSGNQKNYLTWYQQKPGQAPRLLIYWASTRESGIPARFSGSGSGTDFTLTISSLQPEDFAVYHCQNDYSYPYTFGQGTKLEIK

Tests used:
[1] = target: T1, GITR antigen (R&D systems, …); assay: SPR (BIAcore), GITR immobilized on CM5 chip, antibody at 300 nM, applied after 231-32-15
Experimental: (§1) For epitope binning using surface plasmon resonance the “in tandem approach” was used (Abdiche, Y N et al., Analytical Biochemistry 386: 172-180 (2009)). For that purpose different chip surfaces were generated on a CM5 sensor chip (GE Healthcare, Series S CM5, BR-1005-30) using immobilization of different densities of GITR antigen (R&D systems, disulfide-linked homodimer; 689-GR). Flow cell 2 contained GITR antigen in low density (667 RU), medium density was assessed in flow cell 3 (1595 RU) and in flow cell 4, high density was achieved (4371 RU). In flow cell 1, ovalbumin (1289 RU, Pierce ThermoFisher 77120) was immobilized for reference. Immobilization was performed according to a standard protocol from the manufacturer (GE Healthcare) for amine coupling (activation of surface with 0.4 M EDC and 0.1 M NHS, GE Healthcare Amine coupling kit, BR-1000-50). Unreacted groups were inactivated with 1 M ethanol-amine-HCA, pH8.5. Afterwards anti-GITR antibodies were run through the different surfaces at a concentration of 300 nM (45 μg/ml) for 240 seconds at 5 μl/min. […] A dissociation time of 60 seconds was included before adding the competing antibody (300 nM, 5 μl/min).

[2] = target: T2, human GITR D60A mutant, expressed on …; assay: flow cytometry on 1624-5 cells, 2 µg/ml, MFI ratio (monoclonal/polyclonal) of mutant against wild type
Experimental: (§2) All the mean fluorescence intensity (MFI) values were calculated as the mean of two measurements.
(§3) The percentages shown in FIG. 6B are the percentages of GITR positive cells in each plot.

[3] = target: T3, human GITR G63A mutant, expressed on …; assay: as above
Experimental: as §2, §3

[4] = target: T1, GITR antigen (R&D systems, …); assay: SPR (BIAcore), GITR immobilized on CM5 chip, antibody at 300 nM, in tandem binning
Experimental: as §1

[5] = target: T4, V1M cynomolgus GITR, expressed on …; assay: flow cytometry on 1624-5 cells
Text: (§4) As further evidence for the binding characteristics of the anti-GITR antibodies, the binding of the antibodies to cynomolgus GITR was compared. The immature protein of cynomolgus GITR comprises the amino acid sequence of SEQ ID NO: 44. To increase protein expression, the first residue of the signal peptide of cynomolgus GITR was replaced by methionine, generating V1M cynomolgus GITR. A mutant cynomolgus GITR V1M/Q62P/S63G, where the amino acid residues at the positions 62 and 63 (GlnSer), numbered according to SEQ ID NO: 44, were replaced by the corresponding residues in human GITR (ProGly), was then generated. FIG. 7A is a sequence alignment between human GITR, V1M cynomolgus GITR, and V1M/Q62P/S63G cynomolgus GITR.

[6] = target: T5, V1M/Q62P/S63G cynomolgus GITR, …; assay: flow cytometry on 1624-5 cells, 2 µg/ml
Text: as §4

[7] = target: T1, GITR antigen (R&D systems, …); assay: Luminex suspension array, 20 µg/ml competitor pre-incubated with R-PE labeled GITR; captured antibody 231-32-15
Experimental: The bead mixture and the antigen/antibody mixture were mixed 1:1 (20 μl from each) and incubated for one additional hour under shaking conditions (20° C., 650rpm), Directly before the measurement, 40 μl of assay buffer was added to each well and analysis was performed using a Luminex® 200 system (Millipore) and a readout of 100 beads in 48 μl sample volume. Binding was determined using the […] values of the non-competed control (100% binding, only assay buffer as competing compound).

| Binder | binding result [1] | percentage of reduction in binding relative to wild type GITR [2] | percentage of increase in binding relative to wild type GITR [3] | binding result [4] | binding result [5] | binding result [6] | percentage of reduction in binding relative to wild type GITR [3] | binding result [7] |
| --- | --- | --- | --- | --- | --- | --- | --- | --- |
| B1 | binds | 10% | 62% |  |  |  |  |  |
| B2 |  | 82% |  | binds | no binding (tested: 2 µg/ml) | binds | 37% |  |
| B3 |  | 88% |  |  | no binding (tested: 2 µg/ml) | binds | 59% | binds |
| B4 |  |  |  |  |  |  |  | binds |
